Experimental findings from patent publication US20260275304A1, “METHODS AND COMPOSITIONS FOR GLYPHOSATE TOLERANCE IN PLANTS” (Monsanto Technology LLC, priority 2023, published 2026) are described below.

Residue numbers refer to the chain shown, from its start. Names and notes keep the numbering of the source. Read-outs that look alike come from different tables or passages of the source.

One data set concerns maize EPSPS. Nature of the data set: In vitro characterization of EPSPS mutants (EnzChek phosphate assay, Michaelis-Menten kinetics, glyphosate Ki). The format is biochemical, Zea mays. To be noted: for Km: apparent Km, mean±S.E.; for Ki: inhibitory constant for glyphosate, no unit in table (around 800 μM). On the procedure: Activity was determined by quantifying release of Pi, coupled to a reaction with MESG, catalyzed by purine-nucleoside phosphorylase using the EnzChek Phosphate Assay Kit from Invitrogen, first published in 1992. 95 μL of master mix was added to each well and 5 μL of the varied substrate dilutions were multi-channeled into the plate to start the reaction simultaneously for all conditions. Absorbance measurements at 360 nm were taken every 10 seconds for 3 minutes to capture the initial reaction rate of each condition. Varying levels of substrate were added to generate the resulting reaction rate curves. Each condition was performed in triplicate. Ki was determined as previously described (Lu, et al., Protein Engineering, Design and Selection 30:395-399 (2017)). Data was fit to the Michaelis-Menten kinetics equation and were also validated through GraphPad Prism's built-in function for each variant.
For protein expression of EPSPS and its variants, E. coli BL21 (DE3) was used as the expression host. Electrocompetent cells were transformed with the corresponding constructed plasmids, pET28a (+) with selected EPSPS variants (wild-type, TIPS, TIPS P126S, TIPS K296R, TIPS P126S/K296R). A single colony of an E. coli BL21 (DE3) strain harboring one of the constructed plasmids was inoculated into 2 mL of Luria Bertani broth (LB) medium with 50 μg/mL kanamycin and grown overnight at 37° C./225 rpm. The overnight-grown culture (using 100 μl) was scaled up with 2000-fold dilution in a 500-mL triple baffled shake flask and grown to a cell density of 0.8 (optical density [OD600]) at 37° C./225 rpm. Protein expression was induced by adding 0.2 mM of isopropyl β-D-1-thiogalactopyranoside (IPTG) and cells were cultured for 24 hours at 20° C./225 rpm. The induced cell culture was harvested by centrifugation at 4,000 g and 4° C. for 20 mins. Cell pellets were then resuspended in 25 mL of Dulbecco's Phosphate Buffered Saline (DPBS) (Thermo Fisher Scientific, Waltham, MA) pH 7.0 buffer containing 10 mM imidazole, 1 g/L of lysozyme and 5 μl of Pierce™ Universal Nuclease (Thermo Fisher Scientific, Waltham, MA), followed by mixing on a rocker for 30 mins at 4° C. Subsequently, cells were lysed by sonication and the resulting cell lysate was centrifuged at 14,000 g and 4° C. for 20 minutes to obtain the supernatant that contains soluble proteins. Target proteins from the supernatant was purified by HisPur™ Ni-NTA Resin (Thermo Fisher Scientific, Waltham, MA) according to the manufacturer's instruction.
The eluate was dialyzed with 3C protease added to the dialysis cassette, into the appropriate buffer followed by size-exclusion fast protein liquid chromatography. All EPSP synthase variants were stored in 20 mM Tris (pH 7.5), 100 mM NaCl and 10 mM β-mercaptoethanol. The protein concentration was then determined by using the Coomassie Plus Bradford Assay kit (Thermo Fisher Scientific) and the Infinite M200 PRO microplate reader (Tecan, Männedorf, Switzerland) to measure the absorbance of assay mixtures. The presence and purity of the purified proteins were assessed by sodium dodecyl sulfate-polyacrylamide gel electrophoresis.
Enzymatic activity, including inhibitory constant Ki, for EPSPS and TIPS closely corroborate values determined by previous reports. Mutations P126S and K296R have beneficial effects on their own to both Km and kcat and are additive when combined, similar to the observations of the in vivo growth characterization. Furthermore, the high Ki is maintained for each of the variants, showing similar or slightly higher values of around 800 μM compared to the starting point, TIPS. These findings confirm the phenotype endowed by the dual-trait selection pressure employed during the directed evolution campaigns. Kinetic parameters of maize EPSPS with mutations discovered through directed evolution. In Table 4, initial velocity data were measured in triplicate and fit to the Michaelis-Menten equation. […]

For data set [1], the system named is S. cerevisiae strain sKR-024. Nature of the data set: Growth of synthetic yeast strain sKR-024 expressing EPSPS variants with or without glyphosate. The format is cell-based, Saccharomyces cerevisiae. As to conditions: for growth in yeast minimal media without glyphosate: 0 mM glyphosate. On the procedure: EPSPS variants were re-cloned into a clean p416-Core1p backbone and transformed into strain sKR-024 as described above. Colonies were then picked in triplicate into YSC-Ura-Leu and outgrown for 2 days at 30° C. Cultures were then diluted back to OD 0.001 in yeast minimal media (YMM) containing varying amounts of glyphosate as indicated. Growth rate measurements were then obtained using an Infinite M200 PRO microplate reader (Tecan, Männedorf, Switzerland) with incubation at 30° C. for 72-120 hours depending on growth rate of selected variants.
To determine if this system could further corroborate observations from previous literature, the well-studied EPSPS mutants T102I and P106S, and the combined double mutant TIPS (T102I-P106S) were generated and complemented into this yeast system. These mutations were reported to result in varying degrees of glyphosate resistance.
Having established low copy number and weak promoter expression of EPSPS variants, it was sought to recharacterize phenotypes under field conditions that are used in planta. […] It has been reported previously that under standard glyphosate foliar application, 0.3 mM or more of glyphosate (gly) can accumulate in a plant's root nodules and meristems. […] These trends support reported literature of mutants P106S and TIPS grown in various plant hosts. As a result, the present synthetic yeast model system closely resembles in planta observations and thus can be used to select for dual-trait EPSPS variants aimed at both enzymatic efficiency and glyphosate resistance.
Select mutants isolated from the final directed evolution campaign with the improved selection strategy were further evaluated in assorted glyphosate concentrations to determine growth characteristics. Mutants isolated from an EPSPS background were evaluated in media containing 0 mM and 0.25 mM glyphosate with the latter being the concentration at which wild-type EPSPS cannot grow after 100 hours. […] The non-glyphosate mono selection highlighted in blue represents mutations resulting from 5 subcultures in 0 mM glyphosate. The low glyphosate dual selection highlighted in light green represents mutants resulting from an additional subculture into 0.5 mM glyphosate. Lastly, the high glyphosate dual selection highlighted in dark green represent mutations isolated after subcultures in increasing levels of glyphosate, up to 10 mM.

Where [2] appears, read: PEP at saturation (roughly 10 times its Km), read-out: Km (S3P).
[3] abbreviates: S3P at saturation (roughly 10 times its Km), read-out: Km (PEP).

B1: TIPS: Zea mays EPSPS double mutant T102I and P106S, SEQ ID NO:9; positive control (protein)
chain: AGAEEIVLQPIKEISGTVKLPGSKSLSNRILLLAALSEGTTVVDNLLNSEDVHYMLGALRTLGLSVEADKAAKRAVVVGCGGKFPVEDSKEEVQLFLGNAGIAMRSLTAAVTAAGGNATYVLDGVPRMRERPIGDLVVGLKQLGADVDCFLGTDCPPVRVNGIGGLPGGKVKLSGSISSQYLSALLMAAPLALGDVEIEIIDKLISIPYVEMTLRLMERFGVKAEHSDSWDRFYIKGGQKYKSPKNAYVEGDASSASYFLAGAAITGGTVTVEGCGTTSLQGDVKFAEVLEMMGAKVTWTETSVTVTGPPREPFGRKHLKAIDVNMNKMPDVAMTLAVVALFADGPTAIRDVASWRVKETERMVAIRTELTKLGASVEEGPDYCIITPPEKLNVTAIDTYDDHRMAMAFSLAACAEVPVAIRDPGCTRKTFPDYFDVLSTFVKN
modifications: Zea mays
notes: positive control
A word on the Km: it is the substrate concentration at which the rate is half of its maximum. By Ki is commonly meant a measure of affinity in units of concentration, obtained from inhibition or displacement. A high value points to weaker binding. For B1, the values for the Km with maize EPSPS (setting [2]) and with maize EPSPS (setting [3]) were 33.2 µM and 26.2 µM, respectively. Also, affinity at maize EPSPS was put at a Ki of 739 µM. In addition, in data set [1], the “growth in yeast minimal media without glyphosate” value is reported as “grew at a significant deficit”. For the same molecule, the growth in glyphosate entry in data set [1] (0.5 mM glyphosate, Core1p promoter) is “grew well in the presence of glyphosate”. Also, the “order of glyphosate tolerance” value in data set [1] (5 mM glyphosate, FIG. 1 Panel C) is listed as “P106S<T102I<TIPS”.

B2: TIPS-P126S-K296R: maize EPSPS variant, probably SEQ ID NO:11 (protein)
chain: B1 chain with P126S, K296R
modifications: Zea mays
With B2, the results for the Km in the data set on maize EPSPS (setting [2]) and in the data set with maize EPSPS (setting [3]) were 16.8 µM and 15.5 µM, respectively. For the same molecule, the “enzymatic efficiency relative to TIPS” value in the data set on maize EPSPS (higher than evolutionary starting point TIPS) is given as “roughly 2.5 fold”. At maize EPSPS, this molecule yielded a Ki of 871 µM. Further, the “growth in yeast minimal media without glyphosate” value in data set [1] is reported as “performed very similarly to wild-type EPSPS”. For the same molecule, in data set [1] (0.05 mM to 5 mM glyphosate), the “growth across glyphosate levels” value was “performed extremely well in every condition of glyphosate”.
